Measured values published in the supplement of paper PMC10567573.
± gives the standard deviation.

Test: protein stability index of a GFP-peptide fusion (GPS, HEK-293T) (PSI 1-6); higher = more stable
Settings: c terminus: a fixed tail appended
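Further: 24-mer peptide tiles fused after GFP, lentivirally expressed, FACS-sorted into six equal bins by GFP/DsRed ratio, decoded by Illumina sequencing, PSI is the read-weighted mean bin number.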

Row | Sequence | protein stability index (treatment: DMSO) | protein stability index (treatment: MLN4924 1 uM, 8 h)
1 | TDSKELSMAKEVIAKELSKTYQET [ZBED1] | 4.91 ± 0.1 | 4.82 ± 0.57
2 | DNLLRSTQKLSHSTKPSGSPLEEK [MATN2] | 5.31 ± 0.37 | 5.07 ± 0.37
3 | ACSAWLCPGLRLPGSLAGRRAGPA [AUH] | 2.2 ± 0.31 | 2.04 ± 0.9
4 | LCCAFSTDGSVLAAGTHDGSVYFW [WSB1] | 2.78 ± 0.78 | 2.45 ± 0.78
5 | LKERCAQDACQAQAREKELLELQS [CCDC89] | 4.1 ± 0.26 | 4 ± 0.51
6 | RDLIPPHVNFSHLTTKDYMEMYNV [SLC6A17] | 3.04 ± 0.28 | 3.23 ± 0.17
7 | PASTPSVLSSEQEFQMFPKSRLSS [ETS2] | 4.57 ± 0.21 | 4.57 ± 0.24
8 | MLDMKVNPIQGLASKWDYEKNEWK [COX4I1] | 3.75 ± 0.18 | 3.65 ± 0.21
9 | REPALDGGFQMHYEKTPFDQLAFI [EID1] | 2.65 ± 0.33 | 2.43 ± 0.28
10 | GDCDAREEKQRELARKGSLKNGSM [FAM219A] | 5.1 ± 0.26 | 5.35 ± 0.4
11 | RVGKWHQDFPVKKRKKLSTWKQEL [ZNF75A] | 2.7 ± 0.29 | 2.92 ± 0.4
12 | VQQQKLAEERRRQNLQEEKERKLE [FAF2] | 4.87 ± 0.15 | 5.19 ± 0.43
13 | PAATMAVELHYEEGSPRNLGTPTS [C2CD2L] | 4.4 ± 0.17 | 4.52 ± 0.2
14 | LEKGADVNRKSVKGNTALHDCAES [FEM1C] | 5.18 ± 0.29 | 5.38 ± 0.28
15 | SHGVRNKCLQLLGNLGSLEKSVTK [INTS4] | 3.23 ± 0.27 | 3.28 ± 0.22
16 | AEFIESGQYRANEGTSSIVMEIQK [TAF7L] | 4.23 ± 0.24 | 4.45 ± 0.32

Row | Sequence | protein stability index (treatment: DMSO) | protein stability index (treatment: MLN4924 1 uM, 8 h)
17 | LMFLDICSELNKLCQHFEAVHSGT [SPACA9] | 2.67 ± 0.72 | 2.4 ± 0.29
18 | LELLVNNGADVNIQSKDGKSPLHM [ANKRD44] | 4.06 ± 0.23 | 4.01 ± 0.3
19 | GKIRRGAYALPAGLSAPARCLVRC [TRIB3] | 2.47 ± 0.23 | 2.7 ± 0.33
20 | PSSGPVTPQPTALTFAKSSWARQE [AUP1] | 4.2 ± 0.29 | 4.27 ± 0.24
21 | YKLVGSPPWKEAFRQRCLERMRNS [RPAIN] | 2.74 ± 0.32 | 2.98 ± 0.52
22 | SLQSCMHFQPNSPASDLEAALEAA [NANOGP8] | 4.6 ± 0.22 | 4.63 ± 0.27
23 | ELGVIFYNCSCLVLDLQRIFALYS [PLD5] | 3.24 ± 0.39 | 3.29 ± 1
24 | SSRLPQPSGAGKTVVGVPSGKVSS [ZC2HC1A] | 4.62 ± 0.13 | 4.81 ± 0.12
25 | SAERYNPRTNQWSPVVAMTSRRSG [KLHL20] | 4.22 ± 0.061 | 4.43 ± 0.16
26 | RFIHLVTGCVLGSSGKVLPKWGWE [POMT2] | 3.51 ± 1.3 | 3.15 ± 0.63
27 | SLRGRAWQYLSGGKVKLQQNPGKF [TBC1D10A] | 3.13 ± 0.52 | 2.94 ± 0.29
28 | GTPADTGDLSPGHGASAPSVSREA [PWWP2B] | 5.29 ± 0.18 | 5.56 ± 0.22
29 | MRPTLIDLLPTFRHTLQKLTCEFN [FBXO39] | 2.35 ± 0.31 | 2.44 ± 0.54
30 | NAILQLVKKYKSMKLEKEEFVTLK [ESRRG] | 2.24 ± 0.37 | 2.29 ± 0.12
31 | EQELYNNFVYNSPRGYFHTFAGDT [WASL] | 2.73 ± 0.21 | 2.78 ± 0.32
32 | QPSKSHKKVLKKMLKFLAKGEVPK [ATE1] | 2.13 ± 0.36 | 2.26 ± 0.58
